The values that follow come from publication PMC12680351, “The novel GlcNAc 6-phosphate dehydratase NagS governs a metabolic checkpoint that controls nutrient signaling in Streptomyces” (PLOS Biology, 2025).

Like-named read-outs stand apart in the source and are kept apart here.

Data set [1] concerns the target T1, NagS (Streptomyces coelicolor, UniProt Q9K3V1).
T1 construct: gene SCO4393; N-terminally His6-tagged NagS
T1 sequence (Q9K3V1 1-251): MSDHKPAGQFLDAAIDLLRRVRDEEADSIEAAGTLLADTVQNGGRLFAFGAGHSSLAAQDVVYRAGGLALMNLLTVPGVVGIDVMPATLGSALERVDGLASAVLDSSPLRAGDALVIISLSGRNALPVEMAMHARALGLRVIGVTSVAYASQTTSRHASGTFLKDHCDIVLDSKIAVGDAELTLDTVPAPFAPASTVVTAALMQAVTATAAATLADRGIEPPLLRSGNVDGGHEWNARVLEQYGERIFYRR
Kind of data set: X-ray crystal structure ([…] Å); competitive inhibition kinetics; thermal denaturation. The class given is biochemical.

Data set [2] deals with T2, NagS (Streptomyces coelicolor, UniProt Q9K3V1, S54A).
T2 construct: gene SCO4393
The class given is biochemical.

Substrate in data set [3]: CC(=O)N[C@H]1C(O)O[C@H](COP(=O)(O)O)[C@@H](O)[C@@H]1O
Kind of data set: purified protein.

Substrate in data set [4]: CC(=O)N[C@H]1C(O)O[C@H](COP(=O)(O)O)[C@H](O)[C@@H]1O
Kind of data set: purified protein. The following applies: divalent metal cation ([…] ZnCl2 supplemented during expression).

Substrate in data set [5]: CC(=O)N[C@@H]1C(O)O[C@H](COP(=O)(O)O)[C@@H](O)[C@@H]1O
Kind of data set: purified protein.

Data set [6] deals with the molecule itself. Kind of data set: SEC; analytical size-exclusion chromatography, Superdex 200 10/300 GL, NagS at 35 uM and 70 uM, 20 mM HEPES pH 7.5, 300 mM NaCl, 5% glycerol, 1 mM DTT; calibrated with a protein standard mix (15-600 kDa). (SEC sorts molecules by how far they enter the pores of the column.)
[7] abbreviates: divalent metal cation ([…] ZnCl2 supplemented during expression).
The mark [8] stands for this setting: catalytic site formed by both monomers, Ser54, Ser91, Glu94, Ser119, Ser121, His53 main chain, ArgB64, AsnB228, AlaB65, GlyB227.

T2 sequence (Q9K3V1 whole entry S54A): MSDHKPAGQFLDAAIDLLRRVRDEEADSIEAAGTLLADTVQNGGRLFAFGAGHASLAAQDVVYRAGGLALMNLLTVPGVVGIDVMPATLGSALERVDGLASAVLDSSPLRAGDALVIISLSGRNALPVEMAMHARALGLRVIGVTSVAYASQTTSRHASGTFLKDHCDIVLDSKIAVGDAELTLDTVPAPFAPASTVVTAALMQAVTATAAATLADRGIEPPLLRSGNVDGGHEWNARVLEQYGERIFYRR

By Ki is commonly meant a dissociation constant, usually derived from enzyme kinetics or from competition with a known ligand. Lower therefore signals higher affinity. In data set [1], `O=C(O)[C@H](O)[C@@H](O)[C@H](O)[C@H](O)COP(=O)(O)O` [6-phosphogluconate] showed a Ki of 280 ± 30 µM.

As a reminder, the Km is the concentration of substrate that gives half-maximal velocity. Turning to `CC(=O)N[C@H]1C(O)O[C@H](COP(=O)(O)O)[C@@H](O)[C@@H]1O` (stereo partly drawn) [GlcNAc-6P], in data set [2], the Km was 850 ± 90 µM.

B1: NagA (Streptomyces coelicolor A3(2)) (protein)
chain: MAPSKVLAGARVVLPTGTVDDGRVIVDGARIADTAPPQAETVDLAGHWVVPGFVDIHNHGGGGASFAGGTAEEILAGVETHRRHGTTTVVASAVTGDLDFLARHAGMLAELAQQGDIVGIHFEGPFISPCRKGAHDEQLLRDPDPAEVRKLVDAAHGHAKMMTLATELPGGLDSVRLLVEHGVIAAVGHTDATYEQTVQAIDAGATVATHLFNAMPPVGHRAPGPITALLEDERITVELINDGTHLHPAALQLAFHHAGAARVAFITDAMDAAGFGDGHYLLGPLEVEVADGVARLVEGGSIAGSTLTLDRAFKRAVTVDRLPVGDVVAAISANPARLLGLDDRIGSLEPGKDADLVVLDDAFDLVGVMRRGEWVVDPHLG
The kcat is the maximal rate divided by the concentration of active sites. As usually defined, the kcat/Km is the second-order rate constant that governs catalysis at low substrate concentration. Turning to B1, the values for the Km in data set [3] (setting [7]), in data set [4] and in data set [5] (setting [7]) were 1590 ± 210 µM, 2840 ± 410 µM and 2400 ± 440 µM, respectively. For the same molecule, the figures for the kcat in data set [3] (setting [7]), in data set [4] and in data set [5] (setting [7]) were 160 ± 9.02 s⁻¹, 29.2 ± 2.31 s⁻¹ and 14.6 ± 1.1 s⁻¹, respectively. Moreover, the kcat/Km in data set [3] (setting [7]) turned out to be 101000 M⁻¹ s⁻¹; in data set [4], 10300 M⁻¹ s⁻¹; in data set [5] (setting [7]), 6060 M⁻¹ s⁻¹.

B2: GlcNAc-6P dehydratase NagS (SCO4393) of Streptomyces coelicolor (enzyme, UniProt Q9K3V1 1-251, looked up)
chain: T1 sequence (Q9K3V1 1-251)
notes: NagS (SCO4393), Streptomyces coelicolor A3(2) M145; calculated mass of the NagS-His6 monomer 28.29 kDa; The methods say N-terminally His6-tagged (pET-15b); the results write NagS-His6; also called NagS-His6; N-acetylglucosamine-6-phosphate dehydratase; source: E. coli Rosetta (DE3)pLysS, purified (Ni-NTA, size-exclusion chromatography on Superdex 200); not shown: His6, N-terminal, kept
One may read the stoichiometry N as the number of molecules, sites or subunits per partner or assembly. In the case of B2, the “stoichiometry N” value in data set [6] was found to be 2. Also, in data set [3] (setting [8]), the Km came to 450 ± 30 µM, the kcat turned out to be 24.7 ± 0.38 s⁻¹ and the kcat/Km was found to be 54800 M⁻¹ s⁻¹. In data set [5], the Km came out at 680 ± 50 µM, the kcat stood at 0.9 ± 0.02 s⁻¹ and the catalytic efficiency (kcat/Km) stood at 1320 M⁻¹ s⁻¹.
